PMC8712213 (Nature, 2020)

Target: ALG6 from Saccharomyces cerevisiae (tag-cleaved) (S. cerevisiae, UniProt Q12001)
Experiment: SEC

Sequence of ALG6 from Saccharomyces cerevisiae (tag-cleaved) (Q12001 whole entry): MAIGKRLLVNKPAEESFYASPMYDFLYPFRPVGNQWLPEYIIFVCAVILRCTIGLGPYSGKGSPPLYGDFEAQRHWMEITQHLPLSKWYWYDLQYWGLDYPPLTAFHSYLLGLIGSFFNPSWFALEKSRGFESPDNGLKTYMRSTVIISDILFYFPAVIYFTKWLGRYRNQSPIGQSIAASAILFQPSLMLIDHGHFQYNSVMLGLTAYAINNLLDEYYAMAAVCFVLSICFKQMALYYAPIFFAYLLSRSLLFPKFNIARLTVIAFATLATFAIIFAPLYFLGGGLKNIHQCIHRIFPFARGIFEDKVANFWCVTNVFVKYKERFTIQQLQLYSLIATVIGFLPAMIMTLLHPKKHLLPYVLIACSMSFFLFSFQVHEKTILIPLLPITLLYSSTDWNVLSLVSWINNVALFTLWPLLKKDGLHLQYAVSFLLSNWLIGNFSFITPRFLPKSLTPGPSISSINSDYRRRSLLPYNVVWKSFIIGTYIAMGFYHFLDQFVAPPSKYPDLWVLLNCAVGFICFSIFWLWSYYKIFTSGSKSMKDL

- binding result: binds
B1: 6AG9-Fab (Fab, V domains shown)
VH: EVQLVESGGGLVQPGGSLRLSCAASGFNVYSSSIHWVRQAPGKGLEWVASISSYSGYTSYADSVKGRFTISADTSKNTAYLQMNSLRAEDTAVYYCAREYWSWYSYSYGIDYWGQGTLVTVSS
VL: DIQMTQSPSSLSASVGDRVTITCRASQSVSSAVAWYQQKPGKAPKLLIYSASSLYSGVPSRFSGSRSGTDFTLTISSLQPEDFATYYCQQSYWVGYPITFGQGTKVEIK
